# Data published in patent publication US8357523B2, “Beta-glucosidase variant enzymes and related polynucleotides” (Codexis, Inc., priority 2009, dated 2013).
# B1: 106 (protein)
# chain: STAIAQEGAAPAAILHPEKWPRPATQRLIDPAVEKRVDALLKQLSVEEKVGQVIQGDIGTITPEDLRKYPLGSILAGGNSGPNGDDRAPPKEWLDLADAFYRVSLEKRPGHTPIPVLFGIDAVHGHGNIGSATIFPHNIALGATRDPELLRRIGEVTAVEMAATGIDWTFAPALSVVRDDRWGRTYEGFSEDPEIVAAYSAAIVEGVQGKFGSKDFMAPGRIVASAKHFLADGGTDQGRDQGDARISEDELIRIHNAGYPPAIDAGVLTVMASFSSWQGIKHHGHKQLLTDVLKGQMGFNGFIVGDWNAHDQVPGCTKFNCPTSLIAGLDMYMAADSWKQLYENTLAQVKDGTIPMARLDDAVRRILRVKVLAGLFEKPAPKDRPGLPGLETLGSPEHRAVGREAVRKSLVLLKNDKGTLPLSPKARVLVAGDGADNIGKQSGGWTISWQGTGNRNDEFPGATSILGGIRDAVADAGGSVEFDVAGQYKTKPDVAIVVFGEEPYAEFQGDVETLEYQPDQKQDLALLKKLKDQGIPVVAVFLSGRPMWVNPELNASDAFVAAWLPGTEGGGVADVLFTDKAGKVQHDFAGKLSYSWPRTAAQTTVNRGDADYNPLFAYGYGLTYKDKSKVGTLPEE
# B2: 104 (protein)
# chain: STAIAQEGAAPAAILHPEKWPRPATQRLIDPAVEKRVDALLKQLSVEEKVGQVIQGDIGTITPEDLRKYPLGSILAGGNSGPNGDDRAPPKEWLDLADAFYRVSLEKRPGHTPIPVLFGIDAVHGHGNIGSATIFPHNIALGATRDPELLRRIGEVTAVEMAATGIDWTFAPALSVVRDDRWGRTYEGFSEDPEIVAAYSAAIVEGVQGKFGSKDFMAPGRIVASAKHFLADGGTDQGRDQGDARISEDELIRIHNAGYPPAIDAGVLTVMASFSSWQGIKHHGHKQLLTDVLKGQMGFNGFIVGDWNAHDQVPGCTKFNCPTSLIAGLDMYMAADSWKQLYENTLAQVKDGTIPMARLDDAVRRILRVKVLAGLFEKPAPKDRPGLPGLETLGSPEHRAVGREAVRKSLVLLKNDKGTLPLSPKARVLVAGDGADNIGKQSGGWTISWQGTGNRNDEFPGATSILGGIRDAVADAGGSVEFDVAGQYKTKPDVAIVVFGEEPYAEFQGDVETLEYQPDQKQDLALLKKLKDQGIPVVAVFLSGRPMWVNPELNASDAFVAAWLPGTEGGGVADVLFTDKAGKVQHDFAGKLSYSWPRTAAQTTVNRGDADYNPLFAYGYGLTYKDKSKVGTLPEESGVPAEARQNAGIY
# B3: 105 (protein)
# chain: STAIAQEGAAPAAILHPEKWPRPATQRLIDPAVEKRVDALLKQLSVEEKVGQVIQGDIGTITPEDLRKYPLGSILAGGNSGPNGDDRAPPKEWLDLADAFYRVSLEKRPGHTPIPVLFGIDAVHGHGNIGSATIFPHNIALGATRDPELLRRIGEVTAVEMAATGIDWTFAPALSVVRDDRWGRTYEGFSEDPEIVAAYSAAIVEGVQGKFGSKDFMAPGRIVASAKHFLADGGTDQGRDQGDARISEDELIRIHNAGYPPAIDAGVLTVMASFSSWQGIKHHGHKQLLTDVLKGQMGFNGFIVGDWNAHDQVPGCTKFNCPTSLIAGLDMYMAADSWKQLYENTLAQVKDGTIPMARLDDAVRRILRVKVLAGLFEKPAPKDRPGLPGLETLGSPEHRAVGREAVRKSLVLLKNDKGTLPLSPKARVLVAGDGADNIGKQSGGWTISWQGTGNRNDEFPGATSILGGIRDAVADAGGSVEFDVAGQYKTKPDVAIVVFGEEPYAEFQGDVETLEYQPDQKQDLALLKKLKDQGIPVVAVFLSGRPMWVNPELNASDAFVAAWLPGTEGGGVADVLFTDKAGKVQHDFAGKLSYSWPRTAAQTTVNRGDADYNPLFAYGYGLTYKDKSKVGTLP
# Assay: High throughput cellobiose assay: fold improvement in cellobiase activity of CelA variants over a control enzyme (Tables 2A-2D, 3, 5, 6, 7)
# Format: biochemical
# Conditions: 3.3 g/l cellobiose, 55° C. and pH 6.0
row,Molecule,Fold improvement over Control Variant No. 5 from Table 2A
1,B1,++ (++ = 1.1 to 6 fold improvement over control Variant No. 2)
2,B2,++ (++ = 1.1 to 6 fold improvement over control Variant No. 2)
3,B3,++ (++ = 1.1 to 6 fold improvement over control Variant No. 2)
